Experiment [1] concerns the target T1, recombinant protein of human IL-4Rα extracellular region (human, UniProt P24394 26-232).
T1 construct: range 26-232; Made in HEK293-6E cells, purified on nickel chelate; Used biotin-labeled on SA probes in the Fortebio assays and unlabeled as ELISA coat; also called hIL-4Rα; IL-4Rα recombinant protein
T1 sequence: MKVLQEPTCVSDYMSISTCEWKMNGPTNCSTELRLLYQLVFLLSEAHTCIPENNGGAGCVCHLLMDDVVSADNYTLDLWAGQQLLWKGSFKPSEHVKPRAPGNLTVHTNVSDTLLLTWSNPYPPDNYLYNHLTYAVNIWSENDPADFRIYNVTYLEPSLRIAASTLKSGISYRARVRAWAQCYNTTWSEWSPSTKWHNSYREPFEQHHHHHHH
The experiment is described as follows: ELISA on coated human hIL-4Rα (1 ug/ml), HRP-linked secondary antibody, OD450. The method, then:
(§1) 1 ug/ml human hIL-4Rα, 10 ug/ml cynomolgus cynoIL-4Rα, 1 ug/ml mouse mIL-4Rα (Sino Biological, Cat: 80198-R08H) and 1 ug/ml rat-derived ratIL-4Rα (Sino Biological, Cat: 51180-MO8H) are diluted in 0.05 M carbonate coating buffer (pH 9.5) at 4° C. overnight. The solution in the wells is discarded the next day and the wells are washed 3 times with PBS washing buffer. Then PBS solution containing 2% BSA is added for blocking for 2 hours. After washing 3 times with PBS washing buffer, 100 ul of humanized candidate antibodies at different diluted concentrations is added, incubated for 1 h at room temperature, and then washed 3 times with PBS washing buffer; the HRP cross-linked antibody (Jackson Immuno Research) is diluted at 1:10000 with PBS washing buffer and incubated for 1 hour at room temperature. After washing 3 times with PBS washing buffer, 100 ul of TMB substrate solution is added to develop color, and after reaction at room temperature for 10 minutes; the reaction is stopped by the addition of 50 ul of 0.5 M concentrated sulfuric acid solution and the absorbance at 450 nm is read.
(An ELISA detects its analyte on a solid surface through an enzyme-linked reagent.)

The target in experiment [2] is T2, hIL-4Rα, full length, on stably transfected HEK293 cells (human, UniProt P24394 26-825).
T2 construct: whole, on cells; also called HEK293-hIL-4Rα
T2 sequence (looked up): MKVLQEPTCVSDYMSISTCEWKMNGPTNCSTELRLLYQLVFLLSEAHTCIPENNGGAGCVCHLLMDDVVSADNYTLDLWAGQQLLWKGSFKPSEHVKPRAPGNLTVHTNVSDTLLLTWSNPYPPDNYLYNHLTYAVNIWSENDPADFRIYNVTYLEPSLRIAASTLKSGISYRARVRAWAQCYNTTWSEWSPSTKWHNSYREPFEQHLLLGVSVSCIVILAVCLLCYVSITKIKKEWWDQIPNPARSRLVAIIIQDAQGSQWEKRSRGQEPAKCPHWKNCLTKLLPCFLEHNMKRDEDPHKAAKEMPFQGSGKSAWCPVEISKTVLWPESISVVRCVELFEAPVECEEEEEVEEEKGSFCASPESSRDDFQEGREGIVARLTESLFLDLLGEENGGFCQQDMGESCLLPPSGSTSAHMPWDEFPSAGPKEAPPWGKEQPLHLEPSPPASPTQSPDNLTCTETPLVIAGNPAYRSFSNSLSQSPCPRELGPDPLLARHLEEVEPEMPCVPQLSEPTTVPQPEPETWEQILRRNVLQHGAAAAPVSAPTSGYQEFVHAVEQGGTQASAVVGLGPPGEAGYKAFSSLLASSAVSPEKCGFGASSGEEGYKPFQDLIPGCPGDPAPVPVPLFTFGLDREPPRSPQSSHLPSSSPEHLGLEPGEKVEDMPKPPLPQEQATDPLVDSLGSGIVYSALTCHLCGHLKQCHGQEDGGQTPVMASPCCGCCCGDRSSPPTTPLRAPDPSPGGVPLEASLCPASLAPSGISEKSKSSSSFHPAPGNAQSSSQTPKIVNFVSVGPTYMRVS
The experiment is described as follows: flow cytometry on 293-hIL-4Rα stably transfected cells, anti-human IgG Fab'2-AF647. As for the experimental part:
Every 1*10⁶ cells corresponds to 100 μl of 3% BSA/PBS solution, and the solution is blocked at 4° C. for 20 minutes. The prepared cells are added to a 96-well U-type plate at a volume of 100 μl/well, and centrifuged at 1100 rpm for 3 minutes, and the supernatant is discarded; and the primary antibody solution is added and incubated for 1 hour on ice. […] After incubation with the primary antibody solution, additional 0.5% BSA/PBS is added to a volume of […], centrifuged at 1100 rpm for 3 minutes, and the supernatant is discarded. 150 μl of 0.5% BSA/PBS is further added, centrifuged at 1100 rpm for 3 minutes, and the supernatant is discarded; before adding a secondary antibody anti-human IgG, Fab′2-AF647, same is diluted at 1:300 with 1% BSA/PBS. 40 μl of the secondary antibody solution is added to each well and incubated on ice for 45 minutes. After incubation with the secondary antibody solution, additional 0.5% BSA/PBS is added to a volume of 150 μl, centrifuged at 1100 rpm for 3 minutes, and the supernatant is discarded; 150 μl of 0.5% BSA/PBS is further added, centrifuged at 1100 rpm for 3 minutes, and the supernatant is discarded; 20-100 μl of PBS is added to resuspend the cells to 1*10⁶ cells per ml, and the obtained suspension is loaded onto a flow cytometer (I-Que screener). After opening the instrument and operating system according to the correct process, and setting the correct parameters, the cells are loaded to the test plate, and the fluorescent signal is detected, analysis is performed using Graph Pad Prism 5 software.
Background: A flow cytometer gives signals particle by particle.

The target in experiment [3] is T3, recombinant protein of cynomolgus IL-4Rα extracellular region (cynomolgus monkey).
T3 construct: also called cynoIL-4Rα; cynomolgus monkey IL-4Rα
T3 chain: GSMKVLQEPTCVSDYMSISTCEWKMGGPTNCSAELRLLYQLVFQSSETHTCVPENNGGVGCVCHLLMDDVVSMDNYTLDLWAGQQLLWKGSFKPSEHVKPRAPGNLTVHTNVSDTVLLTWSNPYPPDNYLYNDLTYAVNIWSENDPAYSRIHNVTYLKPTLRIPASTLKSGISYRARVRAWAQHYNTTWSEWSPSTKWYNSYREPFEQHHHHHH
The experiment is described as follows: ELISA on coated cynomolgus cynoIL-4Rα (10 ug/ml), HRP-linked secondary antibody, OD450. The method, then:
as §1

Experiment [4] has as its target T2, hIL-4Rα, full length, on stably …. The experiment is described as follows: flow cytometry blocking assay on 293-hIL-4Rα stably transfected cells; blocked ligand: biotin-labeled IL-4 at 0.15 ug/ml, SA-PE. As for the experimental part: Every 1*10⁶ cells corresponds to 100 μl of 3% BSA/PBS solution, and the solution is blocked at 4° C. for 20 minutes. The prepared cells are added to a 96-well U-type plate at a volume of 100 μl/well, and centrifuged at 1100 rpm for 3 minutes, and the supernatant is discarded; and the primary antibody solution is added and incubated for 1 hour on ice. Purified candidate antibodies are made into 5 concentration series with a starting concentration of 100 nM, and diluted according to a series of 1:5. After incubation with the primary antibody solution, additional 0.5% BSA/PBS is added to a volume of 150 μl, centrifuged at 1100 rpm for 3 minutes, and the supernatant is discarded. 150 μl of 0.5% BSA/PBS is further added, centrifuged at 1100 rpm for 3 minutes, and the supernatant is discarded; biotin-labeled IL-4 at a final concentration of 0.15 ug/ml is added and incubated on ice for 45 minutes. The secondary antibody SA-PE is diluted at 1:300 with 1% BSA/PBS; 40 μl of the secondary antibody solution is added to each well and incubated on ice for 45 minutes. After incubation with the secondary antibody solution, additional 0.5% BSA/PBS is added to a volume of 150 μl, centrifuged at 1100 rpm for 3 minutes, and the supernatant is discarded; 150 μl of 0.5% BSA/PBS is further added, centrifuged at 1100 rpm for 3 minutes, and the supernatant is discarded. 20-100 μl of PBS is added to resuspend the cells to 1*10⁶ cells per ml, and the obtained suspension is loaded onto a flow cytometer (I-Que screener). After opening the instrument and operating system according to the correct process, and setting the correct parameters, the cells are loaded to the test plate, and the fluorescent signal is detected, analysis is performed using Graph Pad Prism 5 software.

Usually EC50 stands for the concentration that produces a half-maximal response. The EC50 (read off the curve) is the concentration needed to bring the measured effect to its halfway point. Low values mean a more potent agent, high ones a less potent agent.

B1: 1021/1013 (antibody, IgG1, V domains shown)
VH: EVQLVESGGGLVKPGGSLRLSCAASGFTFSRYAMSWVRQAPGKGLEWVSTISSGGSYTNYADSVKGRFTISRDNVKNTLYLQMNSLRAEDTAVYYCARATARATEFAYWGQGTLVTVSS
VL: DIQMTQSPSSLSASVGDRVTITCQASQDISNYLNWYQQKPGKAPKLLIYYTSRLHSGVPSRFSGSGSGTDYTLTISSLQPEDFATYFCQQGNTLPLTFGGGTKVEIK
notes: Humanized candidate antibody; also called 1021/1013-IgG; VH1021 with VL1013
As to B1, the EC50 amounted to 0.064 nM in experiment [1] and 1.4 nM in experiment [3]. Moreover, the “EC50 (read off the curve)” value in experiment [2] was ~0.03 nM.

B2: 1026/1011 (antibody, V domains shown)
VH: QVQLVQSGAEVKKPGASVKMSCKASVYTFTGYNMHWVRQAPGQGLEWIGGLHPGNGDTSYNQKFKDRATLTADRSSNTAYMELSSLRSEDTAVYYCALTTAGRAWFAYWGQGTLVTVSS
VL: DIQMTQSPSSLSASVGDRVTITCQASQDISNYLNWYQQKPGKAPKLLIYYTSRLHSGVPSRFSGSGSGTDYTFTISSLQPEDIATYFCQQGNTLPWTFGGGTKVEIK
notes: Humanized candidate antibody; same remark on Fab/IgG wording as for 1021/1013; also called 1026/1011-IgG; VH1026 with VL1011
For the molecule B2, the EC50 in experiment [1] was 0.06 nM; in experiment [3], 89.2 nM. The “EC50 (read off the curve)” value in experiment [2] is ~0.07 nM. In experiment [4], the “IC50 (read off the curve)” value was ~0.2 nM.

B3: 1026/1012 (antibody, V domains shown)
VH: QVQLVQSGAEVKKPGASVKMSCKASVYTFTGYNMHWVRQAPGQGLEWIGGLHPGNGDTSYNQKFKDRATLTADRSSNTAYMELSSLRSEDTAVYYCALTTAGRAWFAYWGQGTLVTVSS
VL: DIQMTQSPSSLSASVGDRVTITCRASQDISNYLNWYQQKPGKAPKLLIYYTSRLHSGVPSRFSGSGSGTDYTLTISSLQPEDFATYFCQQGNTLPWTFGGGTKVEIK
notes: Humanized candidate antibody; same remark on Fab/IgG wording as for 1021/1013; also called 1026/1012-IgG; VH1026 with VL1012
For the molecule B3, the values for the EC50 in experiment [1] and in experiment [3] were 0.017 nM and 13.2 nM, respectively. Also, in experiment [2], the “EC50 (read off the curve)” value is ~0.06 nM. The “IC50 (read off the curve)” value in experiment [4] was ~0.2 nM.

B4: 1022/1013 (antibody, V domains shown)
VH: EVQLLESGGGLVQPGGSLRLSCAASGFTFSRYAMSWVRQAPGKGLEWVSTISSGGSYTNYADSVKGRFTISRDNVKNTLYLQMNSLRAEDTAVYYCARATARATEFAYWGQGTLVTVSS
VL: DIQMTQSPSSLSASVGDRVTITCQASQDISNYLNWYQQKPGKAPKLLIYYTSRLHSGVPSRFSGSGSGTDYTLTISSLQPEDFATYFCQQGNTLPLTFGGGTKVEIK
notes: Humanized candidate antibody; same remark on Fab/IgG wording as for 1021/1013; also called 1022/1013-IgG; VH1022 with VL1013
Regarding B4, the EC50 in experiment [1] stood at 0.067 nM; in experiment [3], 1.16 nM. The “IC50 (read off the curve)” value in experiment [4] is ~0.09 nM.

(Values after US20240092920A1 (KEYMED BIOSCIENCES, published 2024).)
